Measurements published in patent US20180305450A1 (AstraZeneca / MedImmune, published 2018).
Substitutions are numbered along the chain they refer to.

T1: recombinant biotinylated rat PAR2 extracellular residues 1-75, N-terminal AviTag, C-terminal Flag and poly … (rat, UniProt Q63645 26-75, not fully specified; biotin on the AviTag (enzymatic biotinylation))
T1 construct: range 1-75; not shown: N-terminal AviTag (Avidity LLC); C-terminal Flag and poly Histidine tags
T1 chain (looked up): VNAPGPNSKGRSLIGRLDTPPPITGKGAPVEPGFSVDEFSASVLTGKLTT

B1: PaB670094 scFv (scFv, V domains shown)
VH: EVQLLESGGGLVQPGGSLRLSCAASGFTFSSYAMNWVRQAPGKGLEWVSTISYHGHHISHADHHKGRFTISRDNSKNTLYLQMNSLRAEDTAVYYCARINNDPMDVWGQGTLVTVSS
VL: SIELTQPPSVSVSPGQTASITCSGDNLGKKYVQWYQQKPGQSPVLVIYDDSNRPSGIPERFSGSNSGNTATLTISGTQAMDEADYYCQTWDGNPTTGETNVFGGGTKLTVL
notes: purified scFv; also called ZZ1ODS-B08
B2: Par0067 scFv (scFv, V domains shown)
VH: B1 VH with H54S, H56S, H57L, H60Y, H63S, H64V
VL: B1 VL
notes: purified scFv, parent clone; also called ZZ15D2-D02
B3: PaB670105 scFv (scFv, V domains shown)
VH: B1 VH with H54S, H56S, H57L, H60Y, H63S, H64V
VL: B1 VL with T89H, D91H, T95H, T99H, V101H
notes: purified scFv; also called ZZ1RD0-D01
B4: PaB670095 scFv (scFv, V domains shown)
VH: B1 VH with H60Y, H63S, K65H, G66H
VL: B1 VL
notes: purified scFv; also called ZZ1ODS-H05
B5: PaB670097 scFv (scFv, V domains shown)
VH: B1 VH with S52H, Y53H, H54S, H57L, I58H, H60Y, A61H, D62H, H64V
VL: B1 VL
notes: purified scFv; also called ZZ1ODT-E11
B6: PaB670103 scFv (scFv, V domains shown)
VH: B1 VH with H54S, H56S, H57L, H60Y, H63S, H64V
VL: B1 VL with Q88H, N93H, P94H, V101H
notes: purified scFv; also called ZZ1RCX-C09
B7: PaB670106 scFv (scFv, V domains shown)
VH: B1 VH with H54S, H56S, H57L, H60Y, H63S, H64V
VL: B1 VL with Q88H, G92H, T95H, T96H, G97H, E98H, V101H
notes: purified scFv; also called ZZ1RD0-G02
B8: PaB670102 scFv (scFv, V domains shown)
VH: B1 VH with H54S, H56S, H57L, H60Y, H63S, H64V, N101H, V106H
VL: B1 VL
notes: purified scFv; also called ZZ1PXS-F08
B9: PaB670100 scFv (scFv, V domains shown)
VH: B1 VH with D62H, H64V, K65H
VL: B1 VL
notes: purified scFv
B10: PaB670108 scFv (scFv, V domains shown)
VH: B1 VH with H54S, H56S, H57L, H60Y, H63S, H64V
VL: B1 VL with T89H, D91H, N93H, P94H, T95H
notes: purified scFv; also called ZZ1RD3-H03
B11: PaB670104 scFv (scFv, V domains shown)
VH: B1 VH with H54S, H56S, H57L, H60Y, H63S, H64V
VL: B1 VL with T89H, N93H, P94H, T95H
notes: purified scFv
B12: PaB670107 scFv (scFv, V domains shown)
VH: B1 VH with H54S, H56S, H57L, H60Y, H63S, H64V
VL: B1 VL with Q88H, T89H, D91H, G92H, T96H, G97H
notes: purified scFv; also called ZZ1RD3-D09
B13: PaB670101 scFv (scFv, V domains shown)
VH: EVQLLESGGGLVQPGGSLRLSCAASGFTFSSYAMNWVRQAPGKGLEWVSTISYSGSLISYADSVKGRFTISRDNSKNTLYLQMNSLRAEDTAVYYCARIHHHPHDHWGQGTLVTVSS
VL: B1 VL
notes: purified scFv; also called ZZ1ODO-H01
B14: PaB670099 scFv (scFv, V domains shown)
VH: B1 VH with H56S, H60Y, A61H, H63S, H64V, K65H, G66H
VL: B1 VL
notes: purified scFv
B15: PaB670098 scFv (scFv, V domains shown)
VH: B1 VH with Y53H, H54S, H57L, I58H, S59H, H60Y, H63S, G66H
VL: B1 VL
notes: purified scFv; also called ZZ1ODT-G01
B16: PaB670128 Fab (Fab, V domains shown)
VH: B1 VH with H60Y, H63S, K65H, G66H, N100H, N101H
VL: B1 VL
notes: Fab; also called ZZ1RUE-A01
B17: PaB670120 Fab (Fab, V domains shown)
VH: B1 VH with H60Y, H63S, K65H, G66H, N101H
VL: B1 VL
notes: Fab; also called ZZ1RUC-C11
B18: PaB670103 Fab (Fab, V domains shown)
VH: B13 VH with H100N, H101N, H102D, H104M, H106V
VL: B1 VL with Q88H, N93H, P94H, V101H
notes: Fab; also called ZZ1RCX-C09

Target: T2, recombinant biotinylated human PAR2 extracellular domain (residues 1-75), N-terminal AviTag, C-terminal Flag … (human, UniProt P55085 26-75, biotin on the AviTag (enzymatic biotinylation))
T2 construct: also called Bio-human-PAR2 ECD; human PAR2 ECD; not shown: N-terminal AviTag (Avidity LLC); C-terminal Flag and poly Histidine tags
Test: HTRF competition with Par0067 IgG, pH 7.4, scFv
Description: (§1) 5 μl/well of the appropriate pH 4.44 nM Par0067 IgG solution was added to all wells of the relevant assay plate (pH 7.4 and pH 6.0).
(§2) Test scFv Preparation/Addition: [0172] a) For parallel single point HTS of crude un-purified bacterial lysate scFv samples at both pH 7.4 and pH 6.0 samples were first pre-diluted to 40% of their neat concentration using either pH 7.4 or pH 6.0 assay buffer as appropriate. Subsequently 5 μl of 40% pre-diluted sample was then transferred into the appropriate assay (pH 7.4 or pH 6.0) in order to give a final assay sample concentration of 10.0% (in the 20 μl final assay volume). The parent Par0067 scFv was included in all HTS experiments as a control as were specific pH dependent antibodies as those became available (for benchmarking). […] Duplicate 11 point 1:3 serial dilutions then were prepared on 384 well polypropylene Greiner plates in each of the two assay buffers (pH 7.4 & 6.0). 5 μl per well of each serial dilution was transferred from the relevant pH scFv dilution plate to the corresponding assay plate (pH 7.4 and pH 6.0). 5 μl of the appropriate pH assay buffer was added to the total and non-specific wells. The parent Par0067 purified scFv was included in all multipoint dose response IC₅₀ experiments as a control as were specific pH dependent purified scFv as those became available (for benchmarking).
(§3) For multipoint dose response curves % Specific Binding values were plotted versus test purified antibody concentration (scFv or IgG). IC₅₀ values were determined via a sigmoidal dose response inhibition variable slope curve fit (4 parameter logistic equation) using Graphpad Prism Software.

T2 sequence (P55085 26-75): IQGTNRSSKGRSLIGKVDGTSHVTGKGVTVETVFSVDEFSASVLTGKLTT

IC50	Binder
72.5 nM	B1
3.3 nM	B2
74.4 nM	B3
20 nM	B4
21.8 nM	B5
27.9 nM	B6
313 nM	B7
5.3 nM	B8
20.3 nM	B9
29.1 nM	B10
21.7 nM	B11
42.7 nM	B12
147 nM	B13
12.9 nM	B14
65.9 nM	B15

Target: T2, recombinant biotinylated human PAR2 …
Test: HTRF competition with Par0067 IgG, scFv
Description: as §1, §2, §3

Fold IC50 (pH 6.0 v pH 7.4)	Fold IC50 pH 7.4 (Variant v Par0067)	Binder
3.3 fold	22 fold	B1
1.1 fold	1 fold	B2
6.7 fold	22.5 fold	B3
5.7 fold	6.1 fold	B4
3.6 fold	6.6 fold	B5
7.3 fold	8.5 fold	B6
3.8 fold	94.8 fold	B7
2.6 fold	1.6 fold	B8
3.4 fold	6.2 fold	B9
5.1 fold	8.8 fold	B10
9.3 fold	6.6 fold	B11
10.9 fold	12.9 fold	B12
3.4 fold	44.5 fold	B13
4.8 fold	3.9 fold	B14
3.2 fold	20 fold	B15

Target: T2, recombinant biotinylated human PAR2 …
Test: Biacore SPR 25 C, pH 7.4
Description: (§4) The experiments were carried out using recombinant human, rat and cynomolgus PAR2 with an N-terminal Avi tag and C-terminal Flag-His tags.
(§5) Streptavidin was covalently immobilised to a C1 chip surface using standard amine coupling techniques at a concentration of 4 μg/ml in 10 mM Sodium acetate pH 4.5. A final streptavidin surface of approximately 30-100 RUs was achieved. Recombinant biotinylated PAR2 species (produced in-house) were titrated onto the streptavidin chip surface at 4 μg/ml in HBS-EP+ buffer to enable Fab binding at saturation (Rₘₐₓ). This low level of analyte binding ensured minimal mass transport effects.
(§6) The anti-PAR2 Fabs were serially diluted (0.39 nM-25 nM) in HBS-EP+ buffer pH 7.4 or MES-BS-EP+ pH 6.0 buffer or in MES-BS-EP+ pH 5.6 buffer and flowed over the chip at 50 μl/min, with 3 minutes association and up to 30 minutes dissociation. Multiple buffer-only injections were made under the same conditions to allow for double reference subtraction of the final sensorgram sets, which were analysed using the BiaEval software (version 2.0.1). The chip surface was fully regenerated with pulses of 4 M MgCl₂.

Kd	koff	kon	Binder
0.613 nM	0.00365 s⁻¹	5.95e+06 M⁻¹ s⁻¹	B16
0.247 nM	0.00137 s⁻¹	5.54e+06 M⁻¹ s⁻¹	B17
0.0325 nM	0.000111 s⁻¹	3.52e+06 M⁻¹ s⁻¹	B18

Target: T1, recombinant biotinylated rat PAR2 …
Test: Biacore SPR 25 C, pH 7.4
Description: as §4, §5, §6

Kd	koff	kon	Binder
3.02 nM	0.0196 s⁻¹	6.49e+06 M⁻¹ s⁻¹	B16
2.61 nM	0.0146 s⁻¹	5.62e+06 M⁻¹ s⁻¹	B17
0.184 nM	0.000558 s⁻¹	3.04e+06 M⁻¹ s⁻¹	B18

Target: T2, recombinant biotinylated human PAR2 …
Test: Biacore SPR 25 C, pH 6.0
Description: as §4, §5, §6

Kd	koff	kon	Binder
20.1 nM	0.0457 s⁻¹	2.22e+06 M⁻¹ s⁻¹	B16
6.05 nM	0.021 s⁻¹	3.48e+06 M⁻¹ s⁻¹	B17
1.8 nM	0.000607 s⁻¹	336000 M⁻¹ s⁻¹	B18

Target: T1, recombinant biotinylated rat PAR2 …
Test: Biacore SPR 25 C, pH 6.0
Description: as §4, §5, §6

Kd	koff	kon	Binder
38.5 nM	0.0689 s⁻¹	1.79e+06 M⁻¹ s⁻¹	B16
34 nM	0.281 s⁻¹	8.26e+06 M⁻¹ s⁻¹	B17
10.2 nM	0.00542 s⁻¹	531000 M⁻¹ s⁻¹	B18

Target: T2, recombinant biotinylated human PAR2 …
Test: HTRF competition with Par0067 IgG, pH 6.0, scFv
Description: as §1, §2, §3

IC50	Binder
237 nM	B1
3.6 nM	B2
496 nM	B3
113 nM	B4
77.9 nM	B5
204 nM	B6
1190 nM	B7
13.7 nM	B8
69 nM	B9
149 nM	B10
202 nM	B11
464 nM	B12
496 nM	B13
62.4 nM	B14
210 nM	B15
